Each block holds one substance with its values, some of them ahead of it.
Legend:
[1] = biological target: nucleosome (NCP) with fluorescein-labelled DNA, for fluorescence polarization (human); assay: fluorescence polarisation; increasing amounts of CHD4 PHD1/2, PHD1 or PHD2 added to 5 nM nucleosomes with fluorescein-labelled DNA; 15 mM Tris pH 7.5, 75 mM NaCl, 0.00625% Tween20, 3 mM DTT; apparent
LexA = assay: FRET (nucleosome unwrapping); settings: FP: 15 mM Tris pH 7.5, 75 mM NaCl, 0.00625% Tween20, 3 mM DTT, 5 nM NCP, FRET: 15 mM Tris pH 7.5, 1 mM EDTA, 0.00625% Tween20, 25 nM NCP, NMR: …
CHD4 PHD1/2 [2] = assay: FRET (nucleosome unwrapping); settings: 1.4 uM LexA present, FP: 15 mM Tris pH 7.5, 75 mM NaCl, 0.00625% Tween20, 3 mM DTT, 5 nM NCP, FRET: 15 mM Tris pH 7.5, 1 mM EDTA, 0.00625% Tween20, 25 nM NCP, NMR: …
CHD4 PHD1/2 [3] = assay: fluorescence polarization; settings: 75 mM NaCl, apparent Kd, FP: 15 mM Tris pH 7.5, 75 mM NaCl, 0.00625% Tween20, 3 mM DTT, 5 nM NCP, FRET: 15 mM Tris pH 7.5, 1 mM EDTA, 0.00625% Tween20, 25 nM NCP, NMR: …

Sequence of CHD4 PHD1/2 (aa 361–503) (Q14839 361-503): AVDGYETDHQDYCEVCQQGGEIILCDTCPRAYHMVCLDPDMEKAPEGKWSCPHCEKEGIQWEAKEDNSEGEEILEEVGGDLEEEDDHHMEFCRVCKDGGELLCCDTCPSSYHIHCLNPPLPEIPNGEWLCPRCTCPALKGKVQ

- Kd [1]: 0.63 µM
Substance: CHD4 PHD1/2 (aa 361–503) (from UniProt Q14839 361-503) (domain or fragment)

Substance: Cy3-Cy5-NCP, 601 L with LexA site
- K half (LexA): 1400 nM
- K half (CHD4 PHD1/2 [2]): 32 µM

Substance: Fluorescein-NCP, 601 L with LexA site
- Kd (CHD4 PHD1/2 [3]): 0.63 µM

Source: PMC5686127, “Accessibility of the histone H3 tail in the nucleosome for binding of paired readers” (Nature Communications, 2017)
